Reference: US20260078190A1 (SYSTIMMUNE, published 2026)
Like-named read-outs stand apart in the source and are kept apart here.

Experiments:
[1] = target: T1, SI-2C1, dimeric EGFR ECD fused to rabbit Fc (UniProt P00533 25-645, limits assumed); test: ELISA, plate coated with dimeric EGFR ECD-rabbit Fc (SI-2C1) at 3 µg/mL, antibody from 50 µg/mL in 3x dilutions, goat anti-human IgG-HRP, OD 450 nm
T1 construct: extracellular domain; Made in house; also called dimeric EGFR ECD reagent; not shown: rabbit Fc

[2] = target: T2, Her3 ECD (Sino Biological, 10201-H08H-10) (UniProt P21860 20-643); test: BLI (BLItz), same tip after the EGFR step; second step Her3 ECD 200 nM, 120 s association, 60 s dissociation
T2 construct: extracellular domain; Bought reagent; also called Her3 extracellular domain

[3] = target: T1, SI-2C1, dimeric EGFR ECD fused to …; test: ELISA, plate coated with dimeric EGFR ECD-rabbit Fc (SI-2C1) at 3 µg/mL, antibody from 10 µg/mL in 3x dilutions, goat anti-human IgG-HRP, OD 450 nm
[4] = target: T2, Her3 ECD (Sino Biological, …); test: BLI (BLItz), same tip after the EGFR step; second step Her3 ECD 200 nM, 120 s association, 60 s dissociation; remark: listed apart in the source
[5] = target: T3, Monomeric EGFR ECD (SI-2R4) (UniProt P00533 25-645, limits assumed); test: ELISA on coated monomeric EGFR ECD (SI-2R4), detection through Her3 ECD rabbit IgG1 (SI-1R1); antibody after 7 days in 95% human serum at 37 C; Day 7 at 37 C, 95% human serum
T3 construct: extracellular domain; Coated antigen of the serum stability ELISA

[6] = target: T3, Monomeric EGFR ECD (SI-2R4); test: ELISA on coated monomeric EGFR ECD (SI-2R4), detection through Her3 ECD rabbit IgG1 (SI-1R1) and anti-rabbit IgG-HRP; antibody in 95% human serum, Day 0; Day 0, 95% human serum
[7] = target: T3, Monomeric EGFR ECD (SI-2R4); test: ELISA on coated monomeric EGFR ECD (SI-2R4, 3 µg/mL), antibody after 3 days at 37 °C in 95% human serum, column 'Day 3 (37°C)'; M follows from the text, which gives the neighbouring 4.293e-010 as 429.3 pM
[8] = target: T4, Extracellular domain (Met 1-Ser 645) of human EGFR with a C-terminal polyhistidine tag (human, UniProt P00533 25-645); test: BLI (Octet Red96), antibody on anti-human Fc sensor, curve fit at EGFR 11.1 nM
T4 construct: range 1-645; also called EGFR protein; EGFR ECD; not shown: C-terminal polyhistidine tag

[9] = target: T3, Monomeric EGFR ECD (SI-2R4); test: ELISA on coated monomeric EGFR ECD (SI-2R4), detection through Her3 ECD rabbit IgG1 (SI-1R1); antibody in 95% human serum, Day 7 at 55 C (degradation condition)
[10] = target: T5, EGFR on A431 and FaDu tumor cells (UniProt P00533 25-1210, limits assumed); test: flow cytometry titration on tumour cells (Fadu by the legend paragraph 18, A431 by Example 7 paragraph 83), PE anti-human IgG-Fc, geometric MFI; the table's head prints 'IC50 (nM)', Example 7 calls the values EC50 of binding; bispecific EGFR x Her3 on cells that carry both, the anti-Her3 curve (SI-1C1) stays near the baseline
T5 construct: whole, on cells; the cells are native tumor lines, not transfectants

[11] = target: T4, Extracellular domain (Met 1-Ser 645) of …; test: BLI (Octet Red96), antibody on anti-human Fc sensor, average of the four curve fits
[12] = target: T4, Extracellular domain (Met 1-Ser 645) of …; test: BLI (Octet Red96), antibody on anti-human Fc sensor, curve fit at EGFR 300 nM
[13] = target: T5, EGFR on A431 and FaDu tumor cells; test: flow cytometry titration on tumour cells (A431 by the legend paragraph 19, FaDu by Example 7 paragraph 83), PE anti-human IgG-Fc, geometric MFI; the table's head prints 'IC50 (nM)', Example 7 calls the values EC50 of binding; bispecific EGFR x Her3 on cells that carry both, the anti-Her3 curve (SI-1C1) stays near the baseline
[14] = target: T4, Extracellular domain (Met 1-Ser 645) of …; test: BLI (Octet Red96), antibody on anti-human Fc sensor, curve fit at EGFR 33.3 nM
[15] = target: T4, Extracellular domain (Met 1-Ser 645) of …; test: BLI (Octet Red96), antibody on anti-human Fc sensor, curve fit at EGFR 100 nM

B1: SI-1C5 (antibody, human IgG1, kappa, V domains shown)
VH: QVQLQQSGAEVKKPGSSVKVSCKASGYTFTNYYIYWVRQAPGQGLEWIGGINPTSGGSNFNEKFKTRVTITVDESTNTAYMELSSLRSEDTAFYFCARQGLWFDSDGRGFDFWGQGSTVTVSS
VL: DIQMTQSPSSLSASVGDRVTITCRSSQNIVHSNGNTYLDWYQQTPGKAPKLLIYKVSNRFSGVPSRFSGSGSGTDFTFTISSLQPEDIATYYCFQYSHVPWTFGQGTKLQITR
notes: Monospecific anti-EGFR IgG1 kappa
EC50 (read off the curve) [1]: ~5 nM

B2: SI-1X1 (bispecific antibody, human IgG1, kappa)
heavy: not shown
light: QSALTQPASVSGSPGQSITISCTGTSSDVGGYNFVSWYQQHPGKAPKLMIYDVSDRPSGVSDRFSGSKSGNTASLIISGLQADDEADYYCSSYGSSSTHVIFGGGTKLTVLRTVAAPSVFIFPPSDEQLKSGTASVVCLLNNFYPREAKVQWKVDNALQSGNSQESVTEQDSKDSTYSLSSTLTLSKADYEKHKVYACEVTHQGLSSPVTKSFNRGEC
notes: Tetravalent: anti-HER3 IgG1 with anti-EGFR scFv on the heavy chain C-terminus (heavy chain entry holds IgG1 heavy chain, connector and scFv)
binding result [2]: binds | EC50 (read off the curve) [3]: ~0.2 nM

B3: SI-1X3 (bispecific antibody, human IgG1, kappa)
heavy: not shown
light: B2 light
notes: Tetravalent: anti-HER3 IgG1 with anti-EGFR (1C5) scFv on the heavy chain C-terminus
binding result [4]: binds

B4: SI-1X4 (bispecific antibody, human IgG1, kappa)
heavy: not shown
light: DIQMTQSPSSLSASVGDRVTITCRSSQNIVHSNGNTYLDWYQQTPGKAPKLLIYKVSNRFSGVPSRFSGSGSGTDFTFTISSLQPEDIATYYCFQYSHVPWTFGQGTKLQITRTVAAPSVFIFPPSDEQLKSGTASVVCLLNNFYPREAKVQWKVDNALQSGNSQESVTEQDSKDSTYSLSSTLTLSKADYEKHKVYACEVTHQGLSSPVTKSFNRGEC
notes: Tetravalent: anti-EGFR (1C5) IgG1 with anti-HER3 scFv on the heavy chain C-terminus
binding result [4]: binds | EC50 (read off the curve) [1]: ~5 nM

B5: SI-1X4.2 (bispecific antibody)
heavy: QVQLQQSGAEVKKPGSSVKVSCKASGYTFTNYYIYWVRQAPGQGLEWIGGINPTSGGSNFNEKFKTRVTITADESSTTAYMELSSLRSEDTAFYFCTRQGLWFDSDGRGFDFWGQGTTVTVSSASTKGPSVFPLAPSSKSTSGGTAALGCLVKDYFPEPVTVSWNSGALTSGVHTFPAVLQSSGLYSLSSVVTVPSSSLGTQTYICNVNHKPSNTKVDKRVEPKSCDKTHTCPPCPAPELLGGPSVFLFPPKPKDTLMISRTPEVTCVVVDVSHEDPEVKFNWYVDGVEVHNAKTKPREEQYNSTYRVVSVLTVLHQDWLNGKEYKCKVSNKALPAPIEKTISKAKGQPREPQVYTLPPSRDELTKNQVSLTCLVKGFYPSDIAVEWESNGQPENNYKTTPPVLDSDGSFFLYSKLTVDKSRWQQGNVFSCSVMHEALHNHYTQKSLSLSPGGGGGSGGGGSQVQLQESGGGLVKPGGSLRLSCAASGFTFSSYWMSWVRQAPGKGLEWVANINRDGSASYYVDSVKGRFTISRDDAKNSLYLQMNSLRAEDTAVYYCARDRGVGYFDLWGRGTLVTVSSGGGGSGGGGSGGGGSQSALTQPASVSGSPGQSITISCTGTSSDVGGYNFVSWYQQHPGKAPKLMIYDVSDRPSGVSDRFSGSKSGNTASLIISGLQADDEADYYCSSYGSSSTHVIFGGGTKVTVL
light: B4 light
notes: Tetravalent: anti-EGFR (1C5.2) IgG1 with anti-HER3 scFv
EC50 [5]: 0.467 nM | EC50 [6]: 0.429 nM | EC50 [7]: 0.509 nM | Kd [8]: 6.19 nM | koff [8]: 0.00135 s⁻¹ | kon [8]: 218000 M⁻¹ s⁻¹ | EC50 [9]: 4.25 nM | EC50 [10]: 4.02 nM | Kd [11]: 18.4 nM | koff [11]: 0.00155 s⁻¹ | kon [11]: 125000 M⁻¹ s⁻¹ | Kd [12]: 36.9 nM | koff [12]: 0.00171 s⁻¹ | kon [12]: 46300 M⁻¹ s⁻¹ | EC50 [13]: 2.28 nM | Kd [14]: 9.44 nM | koff [14]: 0.00149 s⁻¹ | kon [14]: 158000 M⁻¹ s⁻¹ | Kd [15]: 21 nM | koff [15]: 0.00165 s⁻¹ | kon [15]: 78800 M⁻¹ s⁻¹

B6: SI-1C4 (bispecific antibody, human IgG1, kappa, V domains shown)
VH: EVQLVESGGGLVQPGGSLRLSCAASGFTLSGDWIHWVRQAPGKGLEWVGEISAAGGYTDYADSVKGRFTISADTSKNTAYLQMNSLRAEDTAVYYCARESRVSFEAAMDYWGQGTLVTVSS
VL: DIQMTQSPSSLSASVGDRVTITCRASQNIATDVAWYQQKPGKAPKLLIYSASFLYSGVPSRFSGSGSGTDFTLTISSLQPEDFATYYCQQSEPEPYTFGQGTKVEIKR
notes: Control: two-in-one bispecific antibody against EGFR and HER3 (Schaefer et al. 2011 platform); also called IC4; benchmark antibody
binding result [2]: binds | EC50 (read off the curve) [3]: ~0.03 nM
